The values that follow come from the supplement of paper PMC5998384.

In series [1] the test system is HeLa Kyoto. The series is described as follows: melting temperature (median over replicates), in situ; higher = more thermally stable.
Series [2] deals with HeLa Kyoto. The series is described as follows: solubility change mitosis vs G1/S (difference of NP-40 vs SDS log2 ratios) (log2 ratio difference); higher = more soluble in mitosis.
The subject of series [3] is HeLa Kyoto. The series can be described thus: solubility in G1/S (NP-40 vs SDS abundance) (log2 ratio); higher = more soluble. The note with it: cell cycle stage: G1/S.
The test system of series [4] is HeLa Kyoto. The series is described as follows: thermal stability score vs G1/S (z-score of summed log2 fold changes over temperatures); higher = more thermally stable than in G1/S.
[5] abbreviates: cell cycle stage: early G1 (4.5 h after nocodazole release).
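For melting temperature (median over replicates), in situ in this document: HeLa Kyoto cells synchronized by double thymidine or nocodazole block, proteins quantified by TMT10plex mass spectrometry, three independent biological replicates.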
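For solubility change mitosis vs G1/S (difference of NP-40 vs SDS log2 ratios) in this document: synchronized HeLa Kyoto cells (double thymidine block for G1/S, nocodazole release for mitosis), protein amounts in NP-40 versus SDS lysates quantified by mass spectrometry, three biological replicates.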
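For solubility in G1/S (NP-40 vs SDS abundance) in this document: HeLa Kyoto cells arrested at G1/S by double thymidine block, proteins quantified by TMT10plex mass spectrometry in mild NP-40 versus SDS extracts, three biological replicates.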
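For thermal stability score vs G1/S (z-score of summed log2 fold changes over temperatures) in this document: synchronized HeLa Kyoto cells, proteins quantified by TMT10plex mass spectrometry, three biological replicates, mitosis taken 0.5 h after nocodazole release, G1/S directly after double thymidine block.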

Turning to “MNNSLENTISFEEYIRVKARSVPQHRMKEFLDSLASKGPEALQEFQQTATTTMVYQQGGNCIYTDSTEVAGSLLELACPVTTSVQPQTQQEQQIQVQQPQQVQVQVQVQQSPQQVSAQLSPQLTVHQPTEQPIQVQVQIQGQAPQSAAPSIQTPSLQSPSPSQLQAAQIQVQHVQAAQQIQAAEIPEEHIPHQQIQAQLVAGQSLAGGQQIQIQTVGALSPPPSQQGSPREGERRVGTASVLQPVKKRKVDMPITVSYAISGQPVATVLAIPQGQQQSYVSLRPDLLTVDSAHLYSATGTITSPTGETWTIPVYSAQPRGDPQQQSITHIAIPQEAYNAVHVSGSPTALAAVKLEDDKEKMVGTTSVVKNSHEEVVQTLANSLFPAQFMNGNIHIPVAVQAVAGTYQNTAQTVHIWDPQQQPQQQTPQEQTPPPQQQQQQLQVTCSAQTVQVAEVEPQSQPQPSPELLLPNSLKPEEGLEVWKNWAQTKNAELEKDAQNRLAPIGRRQLLRFQEDLISSAVAELNYGLCLMTREARNGEGEPYDPDVLYYIFLCIQKYLFENGRVDDIFSDLYYVRFTEWLHEVLKDVQPRVTPLGYVLPSHVTEEMLWECKQLGAHSPSTLLTTLMFFNTKYFLLKTVDQHMKLAFSKVLRQTKKNPSNPKDKSTSIRYLKALGIHQTGQKVTDDMYAEQTENPENPLRCPIKLYDFYLFKCPQSVKGRNDTFYLTPEPVVAPNSPIWYSVQPISREQMGQMLTRILVIREIQEAIAVANASTMH [QRICH1]”, the melting temperature was determined as 47 °C in series [1] (cell cycle stage: G1/S) and 49.3 °C in series [1] (cell cycle stage: mitosis). Further, the “solubility change mitosis (log2)” value in series [2] was -0.197. Also, the “solubility in G1/S (log2)” value in series [3] turned out to be 0.184. Besides, the thermal stability score is 3.16 in series [4] (setting [5]) and 5.23 in series [4] (cell cycle stage: mitosis).

For the sequence “MNPEKDFAPLTPNIVRALNDKLYEKRKVAALEIEKLVREFVAQNNTVQIKHVIQTLSQEFALSQHPHSRKGGLIGLAACSIALGKDSGLYLKELIEPVLTCFNDADSRLRYYACEALYNIVKVARGAVLPHFNVLFDGLSKLAADPDPNVKSGSELLDRLLKDIVTESNKFDLVSFIPLLRERIYSNNQYARQFIISWILVLESVPDINLLDYLPEILDGLFQILGDNGKEIRKMCEVVLGEFLKEIKKNPSSVKFAEMANILVIHCQTTDDLIQLTAMCWMREFIQLAGRVMLPYSSGILTAVLPCLAYDDRKKSIKEVANVCNQSLMKLVTPEDDELDELRPGQRQAEPTPDDALPKQEGTASGGPDGSCDSSFSSGISVFTAASTERAPVTLHLDGIVQVLNCHLSDTAIGMMTRIAVLKWLYHLYIKTPRKMFRHTDSLFPILLQTLSDESDEVILKDLEVLAEIASSPAGQTDDPGPLDGPDLQASHSELQVPTPGRAGLLNTSGTKGLECSPSTPTMNSYFYKFMINLLKRFSSERKLLEVRGPFIIRQLCLLLNAENIFHSMADILLREEDLKFASTMVHALNTILLTSTELFQLRNQLKDLKTLESQNLFCCLYRSWCHNPVTTVSLCFLTQNYRHAYDLIQKFGDLEVTVDFLAEVDKLVQLIECPIFTYLRLQLLDVKNNPYLIKALYGLLMLLPQSSAFQLLSHRLQCVPNPELLQTEDSLKAAPKSQKADSPSIDYAELLQHFEKVQNKHLEVRHQRSGRGDHLDRRVVL [VAC14]”, the melting temperature in series [1] (cell cycle stage: G1/S) came to 53.3 °C; in series [1] (cell cycle stage: mitosis), 53.9 °C. Besides, in series [2], the “solubility change mitosis (log2)” value is -0.133. Further, in series [3], the “solubility in G1/S (log2)” value is 0.0329. For the same sequence, the thermal stability score in series [4] (setting [5]) was -1.83; in series [4] (cell cycle stage: mitosis) it was -1.68.

As to “MNPNCARCGKIVYPTEKVNCLDKFWHKACFHCETCKMTLNMKNYKGYEKKPYCNAHYPKQSFTMVADTPENLRLKQQSELQSQVRYKEEFEKNKGKGFSVVADTPELQRIKKTQDQISNIKYHEEFEKSRMGPSGGEGMEPERRDSQDGSSYRRPLEQQQPHHIPTSAPVYQQPQQQPVAQSYGGYKEPAAPVSIQRSAPGGGGKRYRAVYDYSAADEDEVSFQDGDTIVNVQQIDDGWMYGTVERTGDTGMLPANYVEAI [LASP1]”, the melting temperature in series [1] (cell cycle stage: G1/S) was 58.7 °C; in series [1] (cell cycle stage: mitosis), 60.5 °C. Moreover, in series [2], the “solubility change mitosis (log2)” value was 0.0867. In series [3], the “solubility in G1/S (log2)” value is 0.0591. Further, the thermal stability score in series [4] (setting [5]) is -2.02; in series [4] (cell cycle stage: mitosis) it was -2.68.

In the case of “MNPSMKQKQEEIKENIKNSSVPRRTLKMIQPSASGSLVGRENELSAGLSKRKHRNDHLTSTTSSPGVIVPESSENKNLGGVTQESFDLMIKENPSSQYWKEVAEKRRKALYEALKENEKLHKEIEQKDNEIARLKKENKELAEVAEHVQYMAELIERLNGEPLDNFESLDNQEFDSEEETVEDSLVEDSEIGTCAEGTVSSSTDAKPCI [GMNN]”, the melting temperature in series [1] (cell cycle stage: G1/S) was 57.5 °C; in series [1] (cell cycle stage: mitosis), 52.7 °C. In addition, the “solubility change mitosis (log2)” value in series [2] is -0.0263. Also, the “solubility in G1/S (log2)” value in series [3] turned out to be 0.46. In addition, the thermal stability score in series [4] (setting [5]) was -7.44; in series [4] (cell cycle stage: mitosis), -7.77.

In the case of “MNPTLILAAFCLGIASATLTFDHSLEAQWTKWKAMHNRLYGMNEEGWRRAVWEKNMKMIELHNQEYREGKHSFTMAMNAFGDMTSEEFRQVMNGFQNRKPRKGKVFQEPLFYEAPRSVDWREKGYVTPVKNQGQCGSCWAFSATGALEGQMFRKTGRLISLSEQNLVDCSGPQGNEGCNGGLMDYAFQYVQDNGGLDSEESYPYEATEESCKYNPKYSVANDTGFVDIPKQEKALMKAVATVGPISVAIDAGHESFLFYKEGIYFEPDCSSEDMDHGVLVVGYGFESTESDNNKYWLVKNSWGEEWGMGGYVKMAKDRRNHCGIASAASYPTV [CTSL]”, the results for the melting temperature in series [1] (cell cycle stage: G1/S) and in series [1] (cell cycle stage: mitosis) were 53.9 °C and 55 °C, respectively. The “solubility change mitosis (log2)” value in series [2] was found to be 0.0996. Also, the “solubility in G1/S (log2)” value in series [3] is -0.176. Also, the thermal stability score is 1.47 in series [4] (setting [5]) and 1.22 in series [4] (cell cycle stage: mitosis).

In the case of “MNRFRVSKFRHTEARPPRRESWISDIRAGTAPSCRNHIKSSCSLIAFNSDRPGVLGIVPLQGQGEDKRRVAHLGCHSDLVTDLDFSPFDDFLLATGSADRTVKLWRLPGPGQALPSAPGVVLGPEDLPVEVLQFHPTSDGILVSAAGTTVKVWDAAKQQPLTELAAHGDLVQSAVWSRDGALVGTACKDKQLRIFDPRTKPRASQSTQAHENSRDSRLAWMGTWEHLVSTGFNQMREREVKLWDTRFFSSALASLTLDTSLGCLVPLLDPDSGLLVLAGKGERQLYCYEVVPQQPALSPVTQCVLESVLRGAALVPRQALAVMSCEVLRVLQLSDTAIVPIGYHVPRKAVEFHEDLFPDTAGCVPATDPHSWWAGDNQQVQKVSLNPACRPHPSFTSCLVPPAEPLPDTAQPAVMETPVGDADASEGFSSPPSSLTSPSTPSSLGPSLSSTSGIGTSPSLRSLQSLLGPSSKFRHAQGTVLHRDSHITNLKGLNLTTPGESDGFCANKLRVAVPLLSSGGQVAVLELRKPGRLPDTALPTLQNGAAVTDLAWDPFDPHRLAVAGEDARIRLWRVPAEGLEEVLTTPETVLTGHTEKICSLRFHPLAANVLASSSYDLTVRIWDLQAGADRLKLQGHQDQIFSLAWSPDGQQLATVCKDGRVRVYRPRSGPEPLQEGPGPKGGRGARIVWVCDGRCLLVSGFDSQSERQLLLYEAEALAGGPLAVLGLDVAPSTLLPSYDPDTGLVLLTGKGDTRVFLYELLPESPFFLECNSFTSPDPHKGLVLLPKTECDVREVELMRCLRLRQSSLEPVAFRLPRVRKEFFQDDVFPDTAVIWEPVLSAEAWLQGANGQPWLLSLQPPDMSPVSQAPREAPARRAPSSAQYLEEKSDQQKKEELLNAMVAKLGNREDPLPQDSFEGVDEDEWD [CORO7]”, the melting temperature in series [1] (cell cycle stage: G1/S) was 51 °C; in series [1] (cell cycle stage: mitosis), 51.9 °C. Also, the “solubility change mitosis (log2)” value in series [2] was found to be 0.159. The “solubility in G1/S (log2)” value in series [3] was -0.00965. Also, the thermal stability score in series [4] (setting [5]) stood at 0.406; in series [4] (cell cycle stage: mitosis) it was 0.778.

Consider “MNSPGGRGKKKGSGGASNPVPPRPPPPCLAPAPPAAGPAPPPESPHKRNLYYFSYPLFVGFALLRLVAFHLGLLFVWLCQRFSRALMAAKRSSGAAPAPASASAPAPVPGGEAERVRVFHKQAFEYISIALRIDEDEKAGQKEQAVEWYKKGIEELEKGIAVIVTGQGEQCERARRLQAKMMTNLVMAKDRLQLLEKMQPVLPFSKSQTDVYNDSTNLACRNGHLQSESGAVPKRKDPLTHTSNSLPRSKTVMKTGSAGLSGHHRAPSYSGLSMVSGVKQGSGPAPTTHKGTPKTNRTNKPSTPTTATRKKKDLKNFRNVDSNLANLIMNEIVDNGTAVKFDDIAGQDLAKQALQEIVILPSLRPELFTGLRAPARGLLLFGPPGNGKTMLAKAVAAESNATFFNISAASLTSKYVGEGEKLVRALFAVARELQPSIIFIDEVDSLLCERREGEHDASRRLKTEFLIEFDGVQSAGDDRVLVMGATNRPQELDEAVLRRFIKRVYVSLPNEETRLLLLKNLLCKQGSPLTQKELAQLARMTDGYSGSDLTALAKDAALGPIRELKPEQVKNMSASEMRNIRLSDFTESLKKIKRSVSPQTLEAYIRWNKDFGDTTV [SPAST]”, for which the results for the melting temperature in series [1] (cell cycle stage: G1/S) and in series [1] (cell cycle stage: mitosis) were 48.8 °C and 49.3 °C, respectively. The “solubility change mitosis (log2)” value in series [2] is -0.012. In addition, the “solubility in G1/S (log2)” value in series [3] amounted to 0.427. Also, the thermal stability score in series [4] (setting [5]) is 0.0551; in series [4] (cell cycle stage: mitosis) it was 1.16.
